The target in this assay is AD-CaM (Calmodulin, encoded by the CALM2 gene, fused to the activation domain) (human, UniProt P0DP24 1-149). Briefly: yeast two-hybrid, HIS3 and LacZ reporters.

B1: DB-Q2C R353G mutant (other, not shown: small tags and cut ends)
chain: KVQEQHRQKHFEKRRNPAAGLIQSAWRFYATNLSGTDLHSTWQYYERTVTVPMYSSQTQTYGASRLIPPLNQLELLRNLKSKSGLAFRKDPPPEPSPSQKVSLKDRVFSSPRGVAAKGKGSPQAQTVRRSPSADQSLEDSPSKVPKSWSFGDRSRARQAFRIKGAASRQNSEEASLPGEDIVDDKSCPCEFVTEDLTPGLKVSIRAVCVMRFLVSKRKFKESLRPYDVMDVIEQYSAGHLDMLSRIKSLQSRVDQIVGRGPAITDKDRTKGPAEAELPEDPSMMGRLGKVEKQVLSMEKKLDFLVNIYMQRMGIPPTETEAYFGAKEPEPAPPYHSPEDSREHVDRHGCIVKIVRSSSSTGQKNFSAPPAAPPVQCPPSTSWQPQSHPRQGHGTSPVGDHGSLVRIPPPPAHERSLSAYGGGNRASMEFLRQEDTPGCRPPEGTLRDSDTSISIPSVDHEELERSFSGFSISQSKENLDALNSCYAAVAPCAKVRPYIAEGESDTDSDLCTPCGPPPRSATGEGPFGDVGWAGPRK
notes: Only the intracellular C-terminal region stood in the bait, made with the same primers as the wt construct; also called R353G KCNQ2 mutant
Take B1: the binding result was “no binding”.

The record behind these values is patent publication US20090081724A1 (BIONOMICS, published 2009).
